Test results: PMC7474598

Experiments:
[1] = target: FLAG-SEPN1^D80A (human) (UniProt Q9NZV5); experiment: sucrose gradient sedimentation; lysates of HeLa cells treated for 2 h with DMSO or Tg; 4% to 20% sucrose gradients, 19 fractions, FLAG immunoblot; markers BSA, IgG, catalase
[2] = target: FLAG-SEPN1^U428C (human) (UniProt Q9NZV5); experiment: as above

Row | percent monomer (DMSO-treated cells) [1] | percent monomer (Tg-treated cells) [1] | percent oligomer (DMSO-treated cells) [1] | percent oligomer (Tg-treated cells) [1] | percent monomer (Tg-treated cells) [2] | percent oligomer (DMSO-treated cells) [2] | Substance
1 | 79.7% | 78.4% | 21.5% | 21.5% |  |  | FLAG-SEPN1^D80A (from UniProt Q9NZV5-2 44-556) (natural protein)
2 |  |  |  |  | 61.8% | 96.2% | FLAG-SEPN1^U428C (from UniProt Q9NZV5-2 44-556) (natural protein)
